± gives the standard deviation of the averaged measurements.
What follows are sequences tested on ATP (assay: switch fluorescence ratio, 500 uM ATP over buffer (Cy3 cluster intensity, sum of 5 cycles each) (fold (ratio)); higher = stronger signal-on switching upon ATP binding; sequences stand for … in TCGTCGGCAGCGTCAGATGTGTATAAGAGACAGTTTTTTTTTTTTTTTTTTTTTTTTT…TC). Details: aptamer strand: ATP DNA aptamer (quencher-CACCTGGGGGAGTATTGCGGAGGAAGG + anchor), 100 nM annealed; ATP concentration: 500 uM.
How it was run: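 After annealing to 100 nM quencher-labelled ATP aptamer, Cy3-labelled switching-strand clusters on a modified Illumina MiSeq flow-cell were imaged in selection buffer. A second image followed after 15 min with 500 uM ATP at 22 °C, and five such buffer/ATP cycles were done, each separated by NaOH stripping and re-annealing. The fluorescence ratio, averaged per switch-domain sequence, is summed target-cycle over summed buffer-cycle Cy3 intensity per cluster, with clusters outside 100-1000 RFU excluded.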
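Further: ATP exposure 15 min at 22 °C before imaging.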

CCCGGGAGGT was tested. Which switch fluorescence ratio did it give?
Its switch fluorescence ratio is 1.035 ± 0.0094.

Which switch fluorescence ratio does the source give for CCCGGGGGCT here?
Its switch fluorescence ratio is 1.41 ± 0.032.

With CCCGGGTTGG as the sequence, how does the switch fluorescence ratio read?
The switch fluorescence ratio was 1.12 ± 0.08.

Which switch fluorescence ratio does the source give for CCCGGTATCG here?
Its switch fluorescence ratio is 0.983 ± 0.013.

Which switch fluorescence ratio does the source give for CCCGGTTTAG here?
Its switch fluorescence ratio is 1.03 ± 0.0015.

CCCGTATATC was tested. Which switch fluorescence ratio did it give?
The switch fluorescence ratio was 2.72 ± 0.44.

Which switch fluorescence ratio does the source give for CCCGTGCCTA here?
The switch fluorescence ratio was 1.03 ± 0.064.

Which switch fluorescence ratio does the source give for CCCGTGTGAG here?
The switch fluorescence ratio was 0.983 ± 0.045.

For CCCTAGGATT, which switch fluorescence ratio is on record?
Its switch fluorescence ratio is 1.01 ± 0.03.

Which switch fluorescence ratio does the source give for CCCTAGGGTC here?
Its switch fluorescence ratio is 1.01 ± 0.023.

With CCCTAGGGTT as the sequence, how does the switch fluorescence ratio read?
The switch fluorescence ratio was 1.44 ± 0.56.

Which switch fluorescence ratio does the source give for CCCTAGTATG here?
The switch fluorescence ratio was 0.9915 ± 0.0059.

With CCCTATTTGC as the sequence, how does the switch fluorescence ratio read?
Its switch fluorescence ratio is 1.06 ± 0.02.

CCCTGATCTG was tested. Which switch fluorescence ratio did it give?
The switch fluorescence ratio was 1.02 ± 0.011.

Which switch fluorescence ratio does the source give for CCCTGGACGG here?
The switch fluorescence ratio was 0.9883 ± 0.0053.

For CCCTGTCATC, which switch fluorescence ratio is on record?
Its switch fluorescence ratio is 2.1 ± 1.4.

For CCCTGTGAGC, which switch fluorescence ratio is on record?
Its switch fluorescence ratio is 1.08 ± 0.013.

How did the switch fluorescence ratio turn out when CCCTTGATGC was run?
The switch fluorescence ratio was 1.151 ± 0.008.

CCGAAAAGCT was tested. Which switch fluorescence ratio did it give?
Its switch fluorescence ratio is 1.17 ± 0.041.

Which switch fluorescence ratio does the source give for CCGAAGGTTA here?
Its switch fluorescence ratio is 1.09 ± 0.032.

For CCGAATAATT, which switch fluorescence ratio is on record?
Its switch fluorescence ratio is 1.08 ± 0.011.

Which switch fluorescence ratio does the source give for CCGAATAGTT here?
Its switch fluorescence ratio is 1.18 ± 0.14.

How did the switch fluorescence ratio turn out when CCGAATTATA was run?
The switch fluorescence ratio was 2.04 ± 1.3.

With CCGAATTGGG as the sequence, how does the switch fluorescence ratio read?
The switch fluorescence ratio was 1.01 ± 0.032.

CCGAGATCTT was tested. Which switch fluorescence ratio did it give?
Its switch fluorescence ratio is 1.03 ± 0.032.

With CCGAGCTTGA as the sequence, how does the switch fluorescence ratio read?
Its switch fluorescence ratio is 1.61 ± 0.085.

How did the switch fluorescence ratio turn out when CCGAGGAATG was run?
The switch fluorescence ratio was 1.106 ± 0.0083.

Which switch fluorescence ratio does the source give for CCGAGTTTGT here?
The switch fluorescence ratio was 1.05 ± 0.011.

For CCGATAATAG, which switch fluorescence ratio is on record?
Its switch fluorescence ratio is 5.21 ± 2.2.

CCGATTAAAT was tested. Which switch fluorescence ratio did it give?
Its switch fluorescence ratio is 1.44 ± 0.1.

Which switch fluorescence ratio does the source give for CCGATTACGC here?
Its switch fluorescence ratio is 1.9 ± 0.13.

CCGATTGGCA was tested. Which switch fluorescence ratio did it give?
Its switch fluorescence ratio is 1.55 ± 0.14.

How did the switch fluorescence ratio turn out when CCGATTGTTG was run?
The switch fluorescence ratio was 1.02 ± 0.038.

With CCGCACGAGT as the sequence, how does the switch fluorescence ratio read?
Its switch fluorescence ratio is 3.73 ± 0.63.

For CCGCACTAAG, which switch fluorescence ratio is on record?
The switch fluorescence ratio was 3.94 ± 0.74.

How did the switch fluorescence ratio turn out when CCGCATTTGT was run?
Its switch fluorescence ratio is 2.68 ± 2.4.

How did the switch fluorescence ratio turn out when CCGCCATTGG was run?
The switch fluorescence ratio was 1.62 ± 0.069.

Which switch fluorescence ratio does the source give for CCGCCGGGGT here?
The switch fluorescence ratio was 1.91 ± 0.31.

Which switch fluorescence ratio does the source give for CCGCGCTGCC here?
Its switch fluorescence ratio is 2.71 ± 0.8.

CCGCGGCTGG was tested. Which switch fluorescence ratio did it give?
Its switch fluorescence ratio is 1.154 ± 0.01.

Which switch fluorescence ratio does the source give for CCGGAAGCAG here?
Its switch fluorescence ratio is 3.95 ± 0.66.

Which switch fluorescence ratio does the source give for CCGGAATCAT here?
The switch fluorescence ratio was 1.127 ± 0.00097.

How did the switch fluorescence ratio turn out when CCGGAGGGAG was run?
Its switch fluorescence ratio is 1.0201 ± 0.0006.

How did the switch fluorescence ratio turn out when CCGGAGTTGG was run?
Its switch fluorescence ratio is 3.49 ± 0.11.

For CCGGATACGT, which switch fluorescence ratio is on record?
Its switch fluorescence ratio is 1.39 ± 0.086.

For CCGGATTGTC, which switch fluorescence ratio is on record?
The switch fluorescence ratio was 1.13 ± 0.044.

Which switch fluorescence ratio does the source give for CCGGCGGGGC here?
The switch fluorescence ratio was 1 ± 0.013.

How did the switch fluorescence ratio turn out when CCGGCGGGGG was run?
Its switch fluorescence ratio is 1.4 ± 0.56.

For CCGGCTTGCA, which switch fluorescence ratio is on record?
The switch fluorescence ratio was 1.13 ± 0.017.

CCGGGAAGGG was tested. Which switch fluorescence ratio did it give?
Its switch fluorescence ratio is 1.05 ± 0.012.

For CCGGGAGCAG, which switch fluorescence ratio is on record?
The switch fluorescence ratio was 1.95 ± 0.61.

How did the switch fluorescence ratio turn out when CCGGGATGGT was run?
The switch fluorescence ratio was 1.14 ± 0.057.

With CCGGGATTGA as the sequence, how does the switch fluorescence ratio read?
Its switch fluorescence ratio is 1.083 ± 0.0038.

For CCGGGCCAGC, which switch fluorescence ratio is on record?
Its switch fluorescence ratio is 1.47 ± 0.063.

With CCGGGGAACA as the sequence, how does the switch fluorescence ratio read?
The switch fluorescence ratio was 1.004 ± 0.0069.

CCGGGGAAGT was tested. Which switch fluorescence ratio did it give?
Its switch fluorescence ratio is 0.978 ± 0.031.

For CCGGGGACTG, which switch fluorescence ratio is on record?
Its switch fluorescence ratio is 1.1 ± 0.033.

For CCGGGGATGT, which switch fluorescence ratio is on record?
The switch fluorescence ratio was 1.05 ± 0.04.

Which switch fluorescence ratio does the source give for CCGGGGATTC here?
The switch fluorescence ratio was 1.36 ± 0.2.

With CCGGGGGATG as the sequence, how does the switch fluorescence ratio read?
The switch fluorescence ratio was 1.03 ± 0.042.

How did the switch fluorescence ratio turn out when CCGGGGGGGG was run?
Its switch fluorescence ratio is 1.1 ± 0.17.

With CCGGGGTAGA as the sequence, how does the switch fluorescence ratio read?
The switch fluorescence ratio was 1.02 ± 0.023.

CCGGGGTCGG was tested. Which switch fluorescence ratio did it give?
The switch fluorescence ratio was 1.04 ± 0.057.

How did the switch fluorescence ratio turn out when CCGGGGTGGT was run?
Its switch fluorescence ratio is 1.07 ± 0.035.

For CCGGGTATTG, which switch fluorescence ratio is on record?
The switch fluorescence ratio was 1.027 ± 0.0036.

CCGGTAGGTA was tested. Which switch fluorescence ratio did it give?
The switch fluorescence ratio was 0.969 ± 0.011.

For CCGGTATGGT, which switch fluorescence ratio is on record?
The switch fluorescence ratio was 1.012 ± 0.0077.

CCGGTCAGCC was tested. Which switch fluorescence ratio did it give?
The switch fluorescence ratio was 1.11 ± 0.039.

For CCGGTCTACA, which switch fluorescence ratio is on record?
Its switch fluorescence ratio is 1.05 ± 0.047.

CCGGTGAGGG was tested. Which switch fluorescence ratio did it give?
Its switch fluorescence ratio is 0.999 ± 0.05.

Which switch fluorescence ratio does the source give for CCGGTGCCAA here?
The switch fluorescence ratio was 3.85 ± 0.21.

For CCGGTGTAGA, which switch fluorescence ratio is on record?
The switch fluorescence ratio was 1.01 ± 0.034.

With CCGGTGTTTG as the sequence, how does the switch fluorescence ratio read?
Its switch fluorescence ratio is 0.987 ± 0.021.

For CCGGTGTTTT, which switch fluorescence ratio is on record?
The switch fluorescence ratio was 1.06 ± 0.041.

With CCGGTTTGGA as the sequence, how does the switch fluorescence ratio read?
Its switch fluorescence ratio is 1.13 ± 0.17.

With CCGGTTTGGC as the sequence, how does the switch fluorescence ratio read?
The switch fluorescence ratio was 1.062 ± 0.006.

How did the switch fluorescence ratio turn out when CCGGTTTTTT was run?
The switch fluorescence ratio was 1.003 ± 0.0078.

Which switch fluorescence ratio does the source give for CCGTAATAGG here?
The switch fluorescence ratio was 4.83 ± 0.55.

Which switch fluorescence ratio does the source give for CCGTAATCAG here?
Its switch fluorescence ratio is 1.98 ± 0.14.

Which switch fluorescence ratio does the source give for CCGTAATGTG here?
The switch fluorescence ratio was 1.5 ± 0.16.

How did the switch fluorescence ratio turn out when CCGTAGGAGG was run?
Its switch fluorescence ratio is 1 ± 0.021.

Which switch fluorescence ratio does the source give for CCGTATATCC here?
The switch fluorescence ratio was 2.44 ± 0.16.

CCGTCGAATA was tested. Which switch fluorescence ratio did it give?
Its switch fluorescence ratio is 2.2 ± 0.027.

CCGTCGATGG was tested. Which switch fluorescence ratio did it give?
The switch fluorescence ratio was 1.1 ± 0.036.

How did the switch fluorescence ratio turn out when CCGTGAGGGT was run?
The switch fluorescence ratio was 1.02 ± 0.038.

With CCGTGGGACC as the sequence, how does the switch fluorescence ratio read?
Its switch fluorescence ratio is 1.11 ± 0.016.

CCGTGGGTAC was tested. Which switch fluorescence ratio did it give?
Its switch fluorescence ratio is 5.55 ± 0.7.

CCGTGGTACC was tested. Which switch fluorescence ratio did it give?
Its switch fluorescence ratio is 1.84 ± 0.12.

With CCGTGGTTTT as the sequence, how does the switch fluorescence ratio read?
The switch fluorescence ratio was 0.99133 ± 5.8e-05.

CCGTGTAAGC was tested. Which switch fluorescence ratio did it give?
Its switch fluorescence ratio is 1.343 ± 0.0024.

How did the switch fluorescence ratio turn out when CCGTGTTCGA was run?
Its switch fluorescence ratio is 1.01 ± 0.051.

How did the switch fluorescence ratio turn out when CCGTTAGTAA was run?
The switch fluorescence ratio was 3.13 ± 0.46.

How did the switch fluorescence ratio turn out when CCGTTCGACA was run?
The switch fluorescence ratio was 1.37 ± 0.058.

For CCGTTGACCT, which switch fluorescence ratio is on record?
The switch fluorescence ratio was 1.073 ± 0.01.

CCGTTGAGTC was tested. Which switch fluorescence ratio did it give?
The switch fluorescence ratio was 1.06 ± 0.049.

With CCGTTGGGGG as the sequence, how does the switch fluorescence ratio read?
The switch fluorescence ratio was 1.01 ± 0.036.

How did the switch fluorescence ratio turn out when CCGTTGTGGA was run?
The switch fluorescence ratio was 1.038 ± 0.0027.

How did the switch fluorescence ratio turn out when CCGTTGTTCG was run?
The switch fluorescence ratio was 1.02 ± 0.027.

For CCGTTGTTTG, which switch fluorescence ratio is on record?
The switch fluorescence ratio was 0.979 ± 0.011.

How did the switch fluorescence ratio turn out when CCGTTTATAT was run?
The switch fluorescence ratio was 1.4 ± 0.13.

From the supplement of paper PMC10126150
